Read-outs that look alike come from different tables or passages of the source.
Tests used:
[1] = target: T1, canine OSMR on canine cells (canine, UniProt A0A8I3MI11 28-967); assay: cell-based or functional assay
T1 sequence: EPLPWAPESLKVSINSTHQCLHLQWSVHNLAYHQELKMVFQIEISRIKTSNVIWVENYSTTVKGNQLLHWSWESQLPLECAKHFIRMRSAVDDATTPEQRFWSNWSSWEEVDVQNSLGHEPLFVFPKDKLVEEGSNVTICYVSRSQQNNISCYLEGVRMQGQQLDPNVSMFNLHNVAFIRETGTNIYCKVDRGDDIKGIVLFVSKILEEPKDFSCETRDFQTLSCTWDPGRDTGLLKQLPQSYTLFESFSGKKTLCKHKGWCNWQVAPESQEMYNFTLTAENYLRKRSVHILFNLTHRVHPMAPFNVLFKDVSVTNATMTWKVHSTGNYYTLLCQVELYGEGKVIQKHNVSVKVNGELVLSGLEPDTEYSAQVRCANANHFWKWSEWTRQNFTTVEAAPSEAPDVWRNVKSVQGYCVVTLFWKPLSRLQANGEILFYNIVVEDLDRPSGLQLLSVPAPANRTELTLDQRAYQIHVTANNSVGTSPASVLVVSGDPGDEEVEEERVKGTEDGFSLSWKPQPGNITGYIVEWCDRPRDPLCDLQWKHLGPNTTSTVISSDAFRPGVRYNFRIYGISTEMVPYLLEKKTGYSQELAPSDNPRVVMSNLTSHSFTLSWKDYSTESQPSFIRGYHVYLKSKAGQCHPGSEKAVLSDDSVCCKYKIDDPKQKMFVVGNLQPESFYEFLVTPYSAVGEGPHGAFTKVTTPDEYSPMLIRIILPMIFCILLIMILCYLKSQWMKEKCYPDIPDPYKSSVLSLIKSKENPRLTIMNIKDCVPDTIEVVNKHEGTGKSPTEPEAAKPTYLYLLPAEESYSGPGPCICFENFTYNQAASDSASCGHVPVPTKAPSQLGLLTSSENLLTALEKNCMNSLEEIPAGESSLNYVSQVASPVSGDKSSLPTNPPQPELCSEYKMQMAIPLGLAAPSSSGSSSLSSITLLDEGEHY

[2] = target: T2, feline OSMR on feline Fcwf-4 cells (feline, UniProt A0ABI8A843 28-960); assay: cell-based or functional assay
T2 sequence: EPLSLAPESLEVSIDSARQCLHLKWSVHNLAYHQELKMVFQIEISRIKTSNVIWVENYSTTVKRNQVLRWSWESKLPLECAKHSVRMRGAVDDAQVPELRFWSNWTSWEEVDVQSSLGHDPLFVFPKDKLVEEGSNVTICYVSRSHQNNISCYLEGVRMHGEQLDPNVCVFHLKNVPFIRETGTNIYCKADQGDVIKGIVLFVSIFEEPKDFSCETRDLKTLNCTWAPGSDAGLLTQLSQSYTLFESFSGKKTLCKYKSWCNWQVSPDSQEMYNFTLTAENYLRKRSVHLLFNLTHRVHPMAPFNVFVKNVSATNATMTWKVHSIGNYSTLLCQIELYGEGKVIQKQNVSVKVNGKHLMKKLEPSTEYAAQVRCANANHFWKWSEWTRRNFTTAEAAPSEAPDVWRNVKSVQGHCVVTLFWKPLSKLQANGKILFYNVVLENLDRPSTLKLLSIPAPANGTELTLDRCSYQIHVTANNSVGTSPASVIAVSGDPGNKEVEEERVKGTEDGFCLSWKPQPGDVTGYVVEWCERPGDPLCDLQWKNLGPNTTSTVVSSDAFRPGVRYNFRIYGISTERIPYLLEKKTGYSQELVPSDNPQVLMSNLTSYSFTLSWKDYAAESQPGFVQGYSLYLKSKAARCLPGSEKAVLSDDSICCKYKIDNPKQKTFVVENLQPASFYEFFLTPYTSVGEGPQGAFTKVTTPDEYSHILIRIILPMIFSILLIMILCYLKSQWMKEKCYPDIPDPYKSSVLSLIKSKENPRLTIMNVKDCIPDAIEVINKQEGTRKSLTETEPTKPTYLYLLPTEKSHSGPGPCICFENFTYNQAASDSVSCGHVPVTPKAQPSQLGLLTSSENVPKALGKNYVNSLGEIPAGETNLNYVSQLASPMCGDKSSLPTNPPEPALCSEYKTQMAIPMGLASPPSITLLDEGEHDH

[3] = target: T1, canine OSMR on canine cells; assay: cell-based or functional assay; remark: listed apart in the source
[4] = target: T2, feline OSMR on feline Fcwf-4 cells; assay: cell-based or functional assay; remark: listed apart in the source
Human_OSMR [5] = target: T3, Human_OSMR (human, UniProt Q99650 28-739); assay: SPR Biacore, OSMR on chip
T3 construct: Bought protein; also called hOSMR
T3 sequence: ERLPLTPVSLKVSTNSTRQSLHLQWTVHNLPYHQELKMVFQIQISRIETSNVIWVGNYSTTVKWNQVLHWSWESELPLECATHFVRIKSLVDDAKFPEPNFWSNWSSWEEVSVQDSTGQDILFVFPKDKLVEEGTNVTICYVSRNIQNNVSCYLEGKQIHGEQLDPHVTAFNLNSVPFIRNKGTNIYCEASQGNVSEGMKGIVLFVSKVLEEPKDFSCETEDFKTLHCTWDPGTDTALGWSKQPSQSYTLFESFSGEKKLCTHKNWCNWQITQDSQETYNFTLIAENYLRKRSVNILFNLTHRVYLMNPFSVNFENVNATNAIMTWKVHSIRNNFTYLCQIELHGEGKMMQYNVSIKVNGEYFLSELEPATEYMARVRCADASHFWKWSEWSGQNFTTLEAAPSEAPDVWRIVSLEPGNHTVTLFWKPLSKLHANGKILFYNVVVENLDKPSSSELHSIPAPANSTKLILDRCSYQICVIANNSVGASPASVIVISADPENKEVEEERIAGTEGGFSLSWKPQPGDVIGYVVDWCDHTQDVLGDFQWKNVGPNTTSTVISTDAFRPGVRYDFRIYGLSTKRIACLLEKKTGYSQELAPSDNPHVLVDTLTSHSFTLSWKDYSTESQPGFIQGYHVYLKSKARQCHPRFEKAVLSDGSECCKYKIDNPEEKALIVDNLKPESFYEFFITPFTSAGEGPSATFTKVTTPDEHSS

Human_OSMR [6] = target: T3, Human_OSMR; assay: SPR Biacore, OSMR on chip; remark: listed apart in the source
Method: The affinity with which candidate mAbs bind canine, feline, and human (SEQ ID NO: 122; Human_OSMR) (R&D Systems, Minneapolis, Minn.) OSMR was determined using surface plasmon resonance (SPR) on a Biacore system (Biacore Life Sciences (GE Healthcare), Uppsala, Sweden). To avoid affinity differences associated with differential surface preparation that can occur when immobilizing antibodies to surfaces; OSMR from each species was directly conjugated to individual surfaces. Immobilization was obtained by amine coupling 5 μg/mL OSMR using N-hydroxysuccinimide (NHS)/1-Ethyl-3-(3-dimethylaminopropyl) carbodiimide (EDC) chemistry. Chips were quenched with ethanolamine and the affinity with which all candidate mAbs bound to the immobilized OSMR was evaluated. All curves were fit to a 1:1 model. […] Results for affinity measurements are described herein.

[7] = target: T4, ANTIBODY EXPRESSION CONTROL; assay: SPR Biacore, expression control
T4 construct: also called mouse anti-canine antibody (capture reagent of the expression control ELISA)
Procedure, shortened: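 Surface plasmon resonance with OSMR amine-coupled at 5 μg/mL via NHS/EDC, ethanolamine-quenched, and candidate mAbs flowed over as analyte. ka, kd and KD derived from 1:1 model fits.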

B1: Mu_14C04 (antibody, V domains shown)
VH: EVQLQESGAELVKPGASVKISCKASGYAFSNYWMNWMKQRPGKGLEWIGQIYPGHVNTNYNGNFKDKATLTADKSSSTAYMQLSSLTSEDSAVYFCARSADNSGFVLFAYWGQGTLVTVS
VL: DIVLTQSPASLAVSLGQRATISCRASKSVSTSGYSYLHWYQQKPGQPPKLLIFLASNLESGVPARFSGSGSGTDFTLNIHPVEEEDAATYYCQHSRELPLTFGAGTKLELK
notes: Mouse hybridoma IgG
- % inh of canine IL-31 pSTAT3 signaling, canine DH82 cells [1]: 72 % inh
- IC50, inhibition of canine OSM pSTAT3 signaling, canine DH82 cells [1]: 0.73 µg/ml
- % inh of feline IL-31 pSTAT3 signaling, feline Fcwf-4 cells [2]: 0 % inh
- IC50, inhibition of canine IL-31 pSTAT3 signaling, canine DH82 cells [3]: 5.65 µg/ml
- IC50, inhibition of canine OSM pSTAT3 signaling, canine DH82 cells [3]: 8.64 µg/ml
- % inh of feline IL-31 pSTAT3 signaling, feline Fcwf-4 cells [4]: 0 % inh @ 75 µg/ml
- binding result (Human_OSMR [5]): no binding

B2: Mu_02D09 (antibody, V domains shown)
VH: EVQLVESGGGLVKPGGSLTLSCAASGFTFSDYGMHWLRQAPEKGLEWVAYISSGSRAVFFADTVKGRFTISRDNAKNTLFLQMTSLRSDDTAMYYCARDRYDGRGFAYWGQGTLVTVSA
VL: DIVLTQSPATLSVTPGDSVSLSCRASQSISNNLHWYQQTSHESPRLLITYASQSISGIPSRFSGSGSGTDFTLSINSVETEDFGMYFCQQSNSWPLTFGAGTKLELK
notes: Mouse hybridoma IgG; also called mouse anti-OSMR 02D09
- % inh of canine IL-31 pSTAT3 signaling, canine DH82 cells [1]: 0 % inh
- IC50, inhibition of canine OSM pSTAT3 signaling, canine DH82 cells [1]: > 50 µg/ml
- % inh of feline IL-31 pSTAT3 signaling, feline Fcwf-4 cells [2]: 67 % inh
- % inh of canine IL-31 pSTAT3 signaling, canine DH82 cells [3]: 0 % inh @ 75 µg/ml
- IC50, inhibition of canine OSM pSTAT3 signaling, canine DH82 cells [3]: > 50 µg/ml
- % inh of feline IL-31 pSTAT3 signaling, feline Fcwf-4 cells [4]: 67 % inh @ 75 µg/ml
- binding result (Human_OSMR [5]): no binding

B3: Mu_19F07 (antibody, V domains shown)
VH: EVKLVESEGGLVQPGSSMKLSCTASGFTFSDYYMAWVRQVPEKGLEWVANINYDGSSTYYLDSLKSRFIISRDNAKNILYLQMSSLKSEDTATYYCARGLTWDFDVWGTGTTVTVSS
VL: DIVMTQSHKFMSPSVGDRVSITCKASQDVDTAVAWYQQKPGQSPKLLIYLASTRHTGVPDRFTGSGSGTDFTLTISNVQSEDLADYFCQQYSRFPLTFGAGTKLELK
notes: Mouse hybridoma IgG
- % inh of canine IL-31 pSTAT3 signaling, canine DH82 cells [1]: 87 % inh
- IC50, inhibition of canine OSM pSTAT3 signaling, canine DH82 cells [1]: 0.27 µg/ml
- % inh of feline IL-31 pSTAT3 signaling, feline Fcwf-4 cells [2]: 90 % inh
- IC50, inhibition of canine IL-31 pSTAT3 signaling, canine DH82 cells [3]: 0.07 µg/ml
- IC50, inhibition of canine OSM pSTAT3 signaling, canine DH82 cells [3]: 0.27 µg/ml
- IC50, inhibition of canine OSM pSTAT3 signaling, feline Fcwf-4 cells [4]: 0.68 µg/ml
- IC50, inhibition of feline IL-31 pSTAT3 signaling, feline Fcwf-4 cells [4]: 0.42 µg/ml
- binding result (Human_OSMR [5]): no binding

B4: mouse: canine 19F07 chimera (antibody, V domains shown)
VH: EVKLVESEGGLVQPGSSMKLSCTASGFTFSDYYMAWVRQVPEKGLEWVANINYDGSSTYYLDSLKSRFIISRDNAKNILYLQMSSLKSEDTATYYCARGLTWDFDVWGTGTTVTVSS
VL: DIVMTQSHKFMSPSVGDRVSITCKASQDVDTAVAWYQQKPGQSPKLLIYLASTRHTGVPDRFTGSGSGTDFTLTISNVQSEDLADYFCQQYSRFPLTFGAGTKLELKR
notes: Mouse variable domains on canine IgG constant regions; also called 19F07 (Mouse:Canine); mouse:dog chimera 19F07
- IC50, inhibition of canine IL-31 pSTAT3 signaling, canine DH82 cells [3]: 0.28 µg/ml
- IC50, inhibition of canine OSM pSTAT3 signaling, canine DH82 cells [3]: 0.26 µg/ml
- binding result (Human_OSMR [6]): no binding
- Kd [7]: 0.082 nM
- koff [7]: 2.29e-05 s⁻¹
- kon [7]: 281000 M⁻¹ s⁻¹

B5: Mu_09E09 (antibody, V domains shown)
VH: DVKLVESGEGLVKPGGSLKLSCAASGFTFSSYAMSWVRQTPEKRLEWVAYISSGGDYIYYADTVKGRFTISRDNARNTLYLQMSSLKSEDTAMYYCTRDPITGTFAYWGQGTLVTVSA
VL: DLQMTQTTSSLSASLGDRVTISCRASQDINNYLNWYQQKPDGTVKLLIYYTSTLHSGVPSRFSGSGSGTDYSLTISNLEQEDIATYFCQQGNTLPWTFGGGTKLEIK
notes: Mouse hybridoma IgG
- % inh of canine IL-31 pSTAT3 signaling, canine DH82 cells [1]: 80 % inh
- % inh of feline IL-31 pSTAT3 signaling, feline Fcwf-4 cells [2]: 63 % inh
- % inh of canine IL-31 pSTAT3 signaling, canine DH82 cells [3]: 80 % inh @ 75 µg/ml
- % inh of feline IL-31 pSTAT3 signaling, feline Fcwf-4 cells [4]: 63 % inh @ 75 µg/ml
- binding result (Human_OSMR [5]): no binding

B6: Mu_10F07 (antibody, V domains shown)
VH: DVKLVESGEGLVKPGGSLKLSCAASGFTFSSYAMSWVRQTPEKRLEWVTYISSGGDYFYYADTVKGRFTISRDNARNTLYLQMSSLKSEDTAMYYCTRDPITGTFAYWGQGTLVTVSA
VL: DIQMTQTTSSLSASLGDRVTISCRASQDITNYLNWYQQKPDGTVKLLIYYTSTLHSGVPSRFSGSGSGTDFSLTISNLEQEDIATYFCQQGHMLPWTFGGGTKLEIK
notes: Mouse hybridoma IgG
- % inh of canine IL-31 pSTAT3 signaling, canine DH82 cells [1]: 93 % inh
- IC50, inhibition of canine OSM pSTAT3 signaling, canine DH82 cells [1]: 0.04 µg/ml
- % inh of feline IL-31 pSTAT3 signaling, feline Fcwf-4 cells [2]: 91 % inh
- % inh of canine IL-31 pSTAT3 signaling, canine DH82 cells [3]: 93 % inh @ 75 µg/ml
- IC50, inhibition of canine OSM pSTAT3 signaling, canine DH82 cells [3]: 0.05 µg/ml
- % inh of feline IL-31 pSTAT3 signaling, feline Fcwf-4 cells [4]: 91 % inh @ 75 µg/ml
- IC50, inhibition of canine OSM pSTAT3 signaling, feline Fcwf-4 cells [4]: 0.23 µg/ml
- binding result (Human_OSMR [5]): no binding

— patent US20220177594A1 (ZOETIS SERVICES, published 2022)
